Measurements reported in PMC10725331.
pKd: −log10 of the molar value.

Tests used:
Experiment in all cases: direct binding assay (cell-free, plate-based luminescence); GFP-TRKB from 120 ug HEK293T lysate captured on anti-GFP coated 96-well plate; biotinylated BDNF 0.1-100 pM added for 1 h at RT in PBS; HRP-streptavidin and ECL; blank wells subtracted
GFP-TRKB.Tyr433Phe (rat) = GFP-TRKB.Tyr433Phe (rat) (UniProt Q63604)
GFP-TRKB.wt (rat) = GFP-TRKB.wt (rat) (UniProt Q63604)
GFP-TRKB/TRKA.TM (rat) = GFP-TRKB/TRKA.TM (rat) (UniProt Q63604)

pKd (GFP-TRKB.Tyr433Phe (rat)): 12.36
pKd (GFP-TRKB.wt (rat)): 12.41
pKd (GFP-TRKB/TRKA.TM (rat)): 12.41
Substance: biotinylated BDNF (brain-derived neurotrophic factor) (ligand)
